Experimental data taken from patent US11884710B2, “Peptide compounds and methods of use in wound healing” (priority 2013, dated 2024).

What was measured:
[1] = tested on: HCEC monolayers; test: In vitro scratch assay of HCEC monolayers; assay type: cell-based, human
Method: (A) HCECs were grown to confluency and scratched using a 10 μl pipette tip. Scratched HCEC monolayers were treated with HB-EGF (250 ng/ml) or rCAP37 (25-2000 ng/ml), or were left untreated in basal Keratinocyte Serum Free Medium (KSFM). Wound closure was monitored at 0, 18, 24, and 48 hours utilizing a camera-equipped inverted microscope. The histogram represents data acquired at 48 hours, and the values are the mean±SEM of the percentage of wound closure. The data are representative of at least 4 independent experiments. The percentage of wound closure in treated monolayers was compared to untreated controls by one-way analysis of variance (ANOVA) followed by Dunnett's multiple comparison test, **P<0.01, *P<0.05. (B) Representative images of scratched monolayers treated with buffer control, HB-EGF, and rCAP37 (at 25, 100, and 250 ng/ml) are shown for each time point. Images were taken at 20× objective.
In vitro model of wound healing: An in vitro scratch assay was used in order to determine the ability of rCAP37 to facilitate corneal wound healing. Human corneal epithelial cells were cultured as described above until they reached a confluent monolayer. Each monolayer was scratched using a 10 μl pipette tip to create two perpendicular lines. Monolayers were treated with heparin binding-epidermal growth factor (HB-EGF, 250 ng/ml; Becton Dickinson), rCAP37 (25-2000 ng/ml), or basal KSFM (Gibco). Wound closure was monitored at 0, 18, 24, and 48 hours utilizing a camera-equipped inverted microscope (TE2000-E; Nikon, Melville, N.Y.). Time-lapse images of in vitro wound closure were obtained using a camera-equipped inverted microscope (TE2000-E; Nikon) from […]. HCEC monolayers were treated with HB-EGF, rCAP37, and basal KSFM as described above. The width of each scratch was quantitated using ImageJ software (US National Institutes of Health, Bethesda, Md.). Results are presented as the percentage of wound closure.

[2] = tested on: PKCδ; test: Immunohistochemistry for PKCδ in corneal wounds in vivo; parameters: species or system mouse; details: rCAP37 250 ng/ml; sections at 6 hours
Method: Mice corneas were wounded using the AlgerBrush II and treated at 0 and 16 hours with vehicle (normal saline; (A-C)) or rCAP37 (250 ng/ml; (D-F)). Whole eye globes were enucleated at 6 hours (A, B, D, E), 16 hours (C, F), and 48 hours (H) post-wounding, and sections were stained for PKCδ. Representative images show constitutive staining for PKCδ in unwounded corneas (G). […] Pronounced staining for PKCδ was seen along the leading wound edge (↓) in CAP37-treated corneas at 6 hours (D, E) and 16 hours (F). […] Scale bars, 100 μm.
Immunohistochemistry: Whole mouse eyes were collected, fixed, embedded, and cut as previously described. Antigen retrieval was performed by treating sections with Rodent Decloaker (BioCare Medical, Concord, Calif.) and steaming them for 20 minutes before cooling with deionized water for 20 minutes. Sections were blocked for 30 minutes in Rodent Blocker M (BioCare Medical, Concord, Calif.), washed three times for 5 minutes per wash in deionized water, and blocked in peroxide block (Cell Marque, Rocklin, Calif.) for 10 minutes. Sections were then washed three times for 5 minutes in deionized water and incubated overnight at 4° C. with rabbit anti-PKCδ (4 μg/ml; Santa Cruz Biotechnology, Inc. Santa Cruz, Calif.). Sections incubated with rabbit IgG (Cell Signaling Technology, Danvers, Mass.) overnight at 4° C. served as controls for nonspecific staining. […]

B1: CAP37: cationic antimicrobial protein of Mr 37 kDa; recombinant CAP37 produced in human embryonic kidney (HEK) 293 cells (protein)
chain: IVGGRKARPRQFPFLASIQNQGRHFCGGALIHARFVMTAASCFQSQNPGVSTVVLGAYDLRRRERQSRQTFSISSMSENGYDPQQNLNDLMLLQLDREANLTSSVTILPLPLQNATVEAGTRCQVAGWGSQRSGGRLSRFPRFVNVTVTPEDQCRPNNVCTGVLTRRGGICNGDGGTPLVCEGLAHGVASFSLGPCGRGPDFFTRVALFRDWIDGVLNNPGP
percentage wound closure ([1]; CAP37 250 ng/ml, at 18 hours): ~71%
percentage wound closure ([1]; CAP37 500 ng/ml): approximately 62%
time to complete closure of scratch wounds ([1]; HB-EGF 250 ng/ml, CAP37 250 ng/ml): 24 to 48 h
PKCδ staining of corneal sections, in words [2]: strong staining for PKCδ
